Experimental data as given in the supplement of paper PMC9170038.

System: MS2 coat protein
Experiment: apparent KD of MS2 coat protein; designed switch direction (-1 OFF switch, 1 ON switch): -1; higher = weaker reporter binding
Method in brief: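 RNA switches sharing common flanks were transcribed by stalled E. coli RNA polymerase on Illumina chips. A doubling series of SNAP-549-labelled MS2 coat protein, from 0.7 or 1.5 nM to 3 µM, was applied in Tris-HCl pH 7.5 buffer with KCl, MgCl2, BSA, DTT, tRNA and Tween-20. Each step lasted 0.8–1.5 h at the bottom of the series and 10–20 min at the top. Normalised cluster fluorescence was curve-fitted, giving apparent KD as the per-design median over clusters.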

[1] = Eterna round: R95, input ligand: microRNA oligo, concentration not stated
[2] = input ligand: microRNA oligo, concentration not stated
[3] = Eterna round: R95, input ligand: FMN 200 uM
[4] = Eterna round: R95, input ligand: none

Sequence	apparent KD of MS2 coat protein [1] [nM]	apparent KD of MS2 coat protein (input ligand: FMN 200 uM) [nM]	apparent KD of MS2 coat protein (input ligand: none) [nM]	apparent KD of MS2 coat protein [2] [nM]	other results
CAAAACUGAGGAUAUACAUGAGGAUCACCCAUGUCCAAGGUCCUGGGCGGAUGCUGCUGUAGAAGGCGGAAAGA [Diatsobi] (puzzle: Exclusion 3)	21.8	–	–	–	–
CAAAAGGGAGGAUAUACAUGAGGAUCACCCAUGUACGGUUCACGGGUAGGUGCGUAUAGUAGAAGGCCCGCAUA [Abiace] (Eterna round: R97, puzzle: Exclusion 3)	–	172	83.4	–	–
CAAACAAGCGAAAGAUCCCACAUGAGGAUCACCCAUGUGCUCGUCUUAUAAGGUACUGUGACGAAAGUCACGGUACC [Sensor 3, v1 - 91 v21] (Eterna round: R97, puzzle: Sensor, turn-off variant 1)	–	38.4	45.3	–	–
CAAACGGCUUUAGGAUAUGACUUUUCGUACAUGAGGAUCACCCAUGUCAGGACUGGUGGUGCGAGUCAGAAGGAGAGUCAAGAA [Eternabot solution 30] (Eterna round: R96, puzzle: Exclusion NG 2)	–	94.3	176	99.2	–
CAAAUUGCAGGAUAUACUGGGCCAGAGCCAUCGUGUAUUCCACAUGAGGAUCACCCAUGUAGAAGGGCACGUAC [Aqueran] (puzzle: Exclusion 2)	23.8	–	–	–	–
CAACAGGGAGGAUAUACAUGAGGAUCACCCAUGUUCGAGCGUCCUUGAACUACCUCUGGUAGAAGGCCCACACG [Bibiorbi] (Eterna round: R97, puzzle: Exclusion 3)	–	147	56.9	–	–
CAACCGAAUCAGUGAAUGCCGACAUGAGGAUCACCCAUGUGUGAGGAUAUUUUAGUAGAGAACUAAAAGAAGGCACCUGGAAAG [Eternabot solution 20] (Eterna round: R96, puzzle: Exclusion NG 3)	–	70.2	39.8	22.4	–
CAACUGCAUGUGAGGAUAUGCACCGGCCAAGCCGGGCAGAAGGCACAUGAGGAUCACCCAUGUCAUCCUAUUGC [Esusgeraon] (puzzle: Brourd's mod of Exclusion 4)	12.4	–	–	–	–
CAAGUGCCGGAAGGAUAUCAGCGAUGUCACGCUUGAGAAGGUCUGUGCACAUGAGGAUCACCCAUGUCCGCCAGACUCCUUAAC [Eternabot solution 21] (Eterna round: R96, puzzle: Exclusion NG 1)	–	–	–	7.68	–
CAAUAAAAGCGAGGAUAUCCGUAUAAAGAUACAGGAGAAGGUGCGGGUACUCCUCACAUGAGGAUCACCCAUGUAAGAAAUAAA [Erxeraso] (Eterna round: R96, puzzle: Exclusion NG 1)	–	67.4	57.1	33.7	–
CACAAGCUUUUUUGAUGCAUUUUAGUUGGUUGCCUUUUUACAUGAGGAUCACCCAUGUUUGUGUAGCUCGAUCUUUU [JR_SV3TOV2_Sub078] (puzzle: Sensor v3, turn-off variant 2)	29	–	–	–	apparent KD of MS2 coat protein [3]: 36.5 nM; apparent KD of MS2 coat protein [4]: 41.2 nM
CACCGUAACAGAGGAUAUGAUACAUGAGGAUCACCCAUGUAAUAAAUGAGAAUUUCGAAUGUACCUCAGAAGGCUGGAACCGGC [Ostricism 80 - Jieux - Exclusion NG 2] (Eterna round: R96, puzzle: Exclusion NG 2)	–	–	–	33.9	–
CACCGUUACUGAGGAUAUCCUACAUGAGGAUCACCCAUGUAAUAAAUGAGAAUUUCGGAUGUAUUGGAGAAGGCAGAAAUCGGC [Ostricism 62 - Jieux - Exclusion NG 2] (Eterna round: R96, puzzle: Exclusion NG 2)	–	52.7	58.4	48.4	–
CACCGUUAGUGAGGAUAUAUUACAUGAGGAUCACCCAUGUAAUAAAUGAGAAUUUCGGAUGUAUGAUAGAAGGCACAAAUCGGC [Ostricism 52 - Jieux - Exclusion NG 2] (Eterna round: R96, puzzle: Exclusion NG 2)	–	11.2	13.1	11.2	–
CACCUGAAGAGAGGAUAUGAUACAUGAGGAUCACCCAUGUAAUAAAUGAGAAUUUCGAAUGUAAUUCAGAAGGCUCGAUAAGGC [Ostricism 100 - Jieux - Exclusion NG 2] (Eterna round: R96, puzzle: Exclusion NG 2)	–	121	55.3	45.6	–
CACGAAUAGUGAGGAUAUGUGCGACAAAGUUGCACAGAAGGCACAUGAGGAUCACCCAUGUAAGCUAGGUCGAAAGACCUAGCG [Omei Exc(NG)1 A] (Eterna round: R96, puzzle: Exclusion NG 1)	–	37.4	24.2	15.3	–
CACGGCUUAGGAUAUACAUGAGGAUCACCCAUGUGGGAAAGCCAAGGCGUGGUAAAGUGUAGAAGGAAGAAGGA [Solaedra] (puzzle: Exclusion 3)	12.5	–	–	–	–
CACGUGAGAGGAUAUACAUGAGGAUCACCCAUGUAUACAGCAGGGUAUGAAGACUUGGGUAGAAGGCUCGCGUG [Eternabot (L2) Solution 39] (Eterna round: R97, puzzle: Exclusion 3)	–	173	270	–	–
CAGACACAUGAGGAUCACCCAUGUGAGGAUAUGCGUACGUUGUCCGUAGGCGACGUGCGCAGAAGGCGCAAAGG [JL-ex1-3.10 Eli mod] (puzzle: Exclusion 1)	67	–	–	–	apparent KD of MS2 coat protein [3]: 65.7 nM; apparent KD of MS2 coat protein [4]: 79.4 nM
CAGCGUGAAGGAUAUACAUGAGGAUCACCCAUGUGCAACUCUCCAACUCGGACUCCCUGUAGAAGGUCGGCUUU [Eternabot (L2) Solution 88] (Eterna round: R97, puzzle: Exclusion 3)	–	26.9	28	–	–
CAGCUGAAAGUCAGGAUAUCUAGAGCUUCGGCUCUAGAGAAGGGACAUGAGGAUCACCCAUGUGAUCACAGCUG [BmEx4/4-A1] (Eterna round: R97, puzzle: Brourd's mod of Exclusion 4)	–	152	1900	–	–
CAGCUGAAAGUGAGGAUAUCGACUGCUUCGGCAGUCGAGAAGGCACAUGAGGAUCACCCAUGUCUCAACAGCUG [BmEx4/1-A4] (Eterna round: R97, puzzle: Brourd's mod of Exclusion 4)	–	70.3	20.7	–	–
CAGCUGAAUGUGAGGAUAUUACGAGCCUCGGCUCGUGAGAAGGCACAUGAGGAUCACCCAUGUCUCAACAGCUG [BmEx4/2-B2] (Eterna round: R97, puzzle: Brourd's mod of Exclusion 4)	–	759	36.2	–	–
CAGGUGUUAGGAUAUCGGAGAUUGAGGCAGACGGGAAUAUUCGAGAAGGAACAUGAGGAUCACCCAUGUAGUAG [JR_Exclu4_Sub036] (puzzle: Exclusion 4)	23.9	–	–	–	–
CAGGUUAGAGGAUAUACGUAGGUACAGAUCUGUGUGUUUCUACAUGAGGAUCACCCAUGUAGAAGGCUAUCCUG [LRO-Excl2-10] (puzzle: Exclusion 2)	25.3	–	–	–	–
CAGUACUGAGGAUAUACAUGAGGAUCACCCAUGUGCCUCAGGUAGGAUACUACCAUUAGUAGAAGGCAGUACUG [Fiskers Ex 3 828 mod 18] (puzzle: Exclusion 3)	128	–	–	–	–
